Patent US20120208867, “HMGB1 BINDING NUCLEIC ACID MOLECULE AND APPLICATIONS THEREOF” (published 2012)

B1: #80 (ssRNA)
RNA: GGGACGCUCACGUACGCUCACAUCUGAAUUUAAGCCACGUAGAACCAGGCCCUCCACGCGUCAGUGCCUGGACGUGCAGU
B2: #36 (ssRNA)
RNA: GGGACGCUCACGUACGCUCACCUAGCACGUCCGUUUCUGGAUCUGUCAGUUAGAGGCCUAUCAGUGCCUGGACGUGCAGU
B3: #08 (ssRNA)
RNA: GGGACGCUCACGUACGCUCAAGUCCCUUGACACGUCCGUUUUCUAACUGGAAUAGAGGCCUCAGUGCCUGGACGUGCAGU
B4: #10 (ssRNA)
RNA: GGGACGCUCACGUACGCUCAUAGUCAAGGUGAAAACCCCCAUAGAGACUUCAGUGCCUGGACGUGCAGU
B5: #34 (ssRNA)
RNA: GGGACGCUCACGUACGCUCAAUUCACCUCAGCAUGUCCGCUUGUGACGAUGGAGGCACCUUCAGUGCCUGGACGUGCAGU
B6: #06 (ssRNA)
RNA: GGGACGCUCACGUACGCUCAUACACUGCACGCUCCGCUUUGAACAUCAAUGGAGGCCCUGUCAGUGCCUGGACGUGCAGU
B7: #47 (ssRNA)
RNA: GGGACGCUCACGUACGCUCAAAAAACUACUGCCGAACCGUAAGACACGUAGAACCAGGCAUCAGUGCCUGGACGUGCAGU
B8: R8c6_1-18-S4 (ssRNA)
RNA: GGGAGUACAGUAAGACACGUAGCACCAGUCGUUUGUCGUGCCUGGACGUGCAGU
B9: 2'F-CU-R4_9068 (ssRNA)
RNA: GGGACGCUCACGUACGCUCAUGAUAUUUAAAUUUGGCCGCGUUUAAAACAUCCCCUACGAUCAGUGCCUGGACGUGCAGU
modifications: 2'-F on all C and U
B10: 2'F-C-R4_9068 (ssRNA)
RNA: B9 RNA
modifications: 2'-F on all C
B11: 2'F-U-R4_9068 (ssRNA)
RNA: B9 RNA
modifications: 2'-F on all U
B12: R8c6_1-20 (ssRNA)
RNA: GGGUACAGUAAGACACGUAGCACCAGUCUGACGUUUGUCGUCAGUGCCUGGACGUGCAGU
B13: R8c6_1-15 (ssRNA)
RNA: GGGCAGAGUACAGUAAGACACGUAGCACCAGUCUGACGUUUGUCGUCAGUGCCUGGACGUGCAGU
B14: R8c6_1-18 (ssRNA)
RNA: GGGAGUACAGUAAGACACGUAGCACCAGUCUGACGUUUGUCGUCAGUGCCUGGACGUGCAGU
B15: R8c6_1-21 (ssRNA)
RNA: GGGACAGUAAGACACGUAGCACCAGUCUGACGUUUGUCGUCAGUGCCUGGACGUGCAGU
B16: 2'F-R8c6_1-4 (ssRNA)
RNA: GGGACGCUCACGUACGCUCAGAGUACAGUAAGACACGUAGCACCAGUCUGACGUUUGUCGUCAGUGCCUGGACGUG
modifications: 2'-F on all C and U
B17: 2'F-R8c6_1-1 (ssRNA)
RNA: GGGACGCUCACGUACGCUCAGAGUACAGUAAGACACGUAGCACCAGUCUGACGUUUGUCGUCAGUGCCUGGACGUGCAG
modifications: 2'-F on all C and U
B18: 2'F-R8c6_1-15 (ssRNA)
RNA: B13 RNA
modifications: 2'-F on all C and U
B19: 2'F-R8c6_1-21 (ssRNA)
RNA: B15 RNA
modifications: 2'-F on all C and U

These binders were tested against HMGB1 (no His-tag) (UniProt P09429 P09429:1-215) (assay: SPR; 1 uM untagged HMGB1, 500 mM NaCl). Settings: tags: none.
Sequence of HMGB1 (no His-tag) (P09429 whole entry, one chain of several): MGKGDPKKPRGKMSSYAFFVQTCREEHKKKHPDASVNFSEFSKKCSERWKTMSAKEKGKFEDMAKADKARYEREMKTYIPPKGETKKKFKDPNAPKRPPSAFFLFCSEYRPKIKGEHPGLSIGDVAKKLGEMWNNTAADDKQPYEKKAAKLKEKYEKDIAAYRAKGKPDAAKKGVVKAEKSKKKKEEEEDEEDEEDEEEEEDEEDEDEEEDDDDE
Procedure: (§1) First, a sensor chip (trade name: Sensor Chip SA, manufactured by GE Heathcare) specially made for a BIACORE was set on the aforementioned BLACORE (registered trademark) X. Biotinylate deoxythymidine (5 μmol/L) was injected into the flow cell 2 of the aforementioned sensor chip using a running buffer and subjected to binding until the signal intensity (RU: resonance unit) reached about 1000 RU. For the aforementioned biotinylated deoxythymidine, 20-base-long deoxythymidine in which the 5′ end was biotinylated was used. Then, 10 μg/mL of an RNA aptamer was injected at a flow rate of 20 μL/min for 1 min into the aforementioned flow cells 1 and 2 of the aforementioned chip using a running buffer and subjected to binding until the signal intensity reached about 1000 RU. Next, 675 nmol/L of the aforementioned His-tag-added HMGB1 was injected at a flow rate of 20 μL/min for 30 sec using the aforementioned running buffer, and under the same conditions the aforementioned running buffer was allowed to flow continuously for washing. Simultaneously with the injection of the aforementioned His-tag-added HMGB1 and washing with the aforementioned running buffer, signal intensity was measured. The aforementioned running buffer was composed of 20 mmol/L of HEPES, 500 mmol/L of NaCl, 0.1 mmol/L of MgCl₂, and 0.1% Triton X-100 (registered trademark), with the pH thereof being 7.2. As a blocking agent for suppressing nonspecific binding, tRNA was used in a concentration of 1 mg/mL. In a comparative example, signal intensity was measured in the same manner except that the aforementioned comparative example RNA was used in place of the aforementioned example RNA aptamers.
The ability of each of the aforementioned RNA aptamers to bind to HMGB1 in which no His-tag was added to the N-terminus was examined. An analysis of the aforementioned binding ability was carried out in the same manner as in (2) above except that 1 μmol/L of the aforementioned HMGB1 was used in place of the aforementioned His-tag-added HGB1 and the injection time of the aforementioned HMGB1 was 60 sec.

Binder	binding result
B1	binds
B2	binds
B3	binds
B4	binds
B5	binds
B6	binds
B7	binds

Each binder was assayed against T1, His-tagged HMGB1 (UniProt P09429 P09429:1-215) (assay: SPR; physiological 150 mM NaCl). Settings: tags: N-terminal His-tag.
T1 sequence (P09429 whole entry, one chain of several): as above
Procedure: as §1
The ability of each of the aforementioned RNA aptamers to bind to HMGB1 under physiological conditions was examined. An analysis of binding ability was carried out in the same manner as in (2) above except that the 500 mmol/L NaCl concentration of the aforementioned running buffer was changed so as to conform to the physiology condition of a living body of 150 mmol/L, and the injection time of the aforementioned His-tag-added HMGB1 was 45 sec.

Binder	binding result
B1	binds
B2	binds
B3	binds
B4	binds
B5	binds
B6	binds
B7	binds

The binders below were run against His-tagged MIF (UniProt P14174 P14174:2-115) (assay: SPR; 300 nM His-MIF specificity control). Settings: not given.
Sequence of His-tagged MIF (P14174 2-115, one chain of several): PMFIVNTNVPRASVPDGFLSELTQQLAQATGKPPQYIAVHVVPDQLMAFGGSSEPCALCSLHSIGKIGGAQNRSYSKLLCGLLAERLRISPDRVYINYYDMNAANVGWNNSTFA
Procedure: as §1
The ability of each of the aforementioned RNA aptamers to bind to His-tag was examined. An analysis of the aforementioned binding ability was carried out in the same manner as in (2) above except that 300 nmol/L of the aforementioned His-tag-added MIF protein was used in place of the aforementioned His-tag-added HMGB1.

Binder	binding result
B1	no binding
B2	no binding
B3	no binding
B4	no binding
B5	no binding
B6	no binding
B7	no binding

What follows are binders tested against T1, His-tagged HMGB1 (assay: SPR; 160 nM protein). Settings: tags: N-terminal His-tag.
Procedure: as §1
(§2) An analysis of ability to bind to His-tag added HMGB1 was carried out in the same manner as in (2) above of the aforementioned Example 1 except that the aforementioned RNA aptamers were used, and the concentration of the aforementioned His-tag-added HMGB1 was 160 nmol/L. Also, an analysis was carried on the aforementioned 40N as a comparative example in the same manner. FIGS. 12 and 13 show the results.

Binder	binding result
GGGUAGCACCAGUCUGACGUUUGUCGUCAGUGCCUGGACGUGCACC (ssRNA) [R8c6_1-34CC]	binds
GGGAGUACAGUAAGACACGUAGCACCAGUGUGCCUGGACGUGCAGU (ssRNA) [R8c6_1-18-S6]	binds
GGGCACGUAGCACCAGUCUGACGUUUGUCGUCAGUGCCUGGACGUGCAGU (ssRNA) [R8c6_1-30]	binds
B8	binds

The binders below were run against T1, His-tagged HMGB1 (assay: SPR; 200 nM protein, 150 mM NaCl; above unmodified 40N). Settings: tags: N-terminal His-tag.
Procedure: as §1
An analysis of ability to bind to the aforementioned His-tag-added HMGB1 (manufactured by Sigma) was carried out in the same manner as in (2) above of the aforementioned Example 1 except that the aforementioned fluorinated RNA aptamers were used, the concentration of the aforementioned His-tag-added HMGB1 was 200 nmol/L, the concentration of NaCl in the aforementioned running buffer was 150 mmol/L, and the injection time of the aforementioned His-tag-added HMGB1 was 60 seconds. Also, an analysis was carried out in the same manner on unmodified R8c6_{—}1 that was not fluorinated.

Binder	binding result
B9	binds
B10	binds
B11	binds

What follows are binders tested against T1, His-tagged HMGB1 (assay: SPR; superior to R8c6_1; 635 nM protein). Settings: tags: N-terminal His-tag.
Procedure: as §1
as §2, with “His-tag-added” for “His-tag added”, “used,” for “used, and”, “635 nmol/L, and the injection time of the aforementioned His-tag-added HMGB1 was 60 seconds.” for “160 nmol/L.”, “manner.” for “manner. FIGS. 12 and 13 show the results.”

Binder	binding result
B12	binds
B13	binds
B14	binds
B15	binds

The binders below were run against T1, His-tagged HMGB1 (assay: SPR; 200 nM protein, 500 mM NaCl). Settings: tags: N-terminal His-tag.
Procedure: as §1
An analysis of ability to bind to His-tag-added HMGB1 was carried out in the same manner as in (2) above of the aforementioned Example 1 except that the aforementioned fluorinated RNA aptamers were used, the concentration of His-tag-added HMGB1 was 200 nmol/L, and the injection time of the aforementioned His-tag-added HMGB1 was 60 seconds. Also, an analysis was carried out in the same manner on the aforementioned 2′F-40N and unmodified R8c6_{—}1 that was not fluorinated.

Binder	binding result
B16	binds
B17	binds
B18	binds
B19	binds
